Data taken from US10941182 (Amgen, dated 2021).
Non-standard residues stand in square brackets, D forms with d. dBip = N[C@H](Cc1ccc(-c2ccccc2)cc1)C(=O)O; Oic = O=C(O)[C@@H]1C[C@@H]2CCCC[C@@H]2N1; Phe(4-Cl) = N[C@@H](Cc1ccc(Cl)cc1)C(=O)O; dPhe(4-Cl) = N[C@H](Cc1ccc(Cl)cc1)C(=O)O; Phe(4-I) = N[C@@H](Cc1ccc(I)cc1)C(=O)O; d1Nal = N[C@H](Cc1cccc2ccccc12)C(=O)O; NMeR = CN[C@@H](CCCNC(=N)N)C(=O)O; hArg = N=C(N)NCCCC[C@H](N)C(=O)O; Cha = N[C@@H](CC1CCCCC1)C(=O)O; NMeL = CN[C@@H](CC(C)C)C(=O)O; Nle = CCCC[C@H](N)C(=O)O; Orn = NCCC[C@H](N)C(=O)O

T1: human APJ receptor (human, UniProt P35414 1-380)
T1 sequence (looked up): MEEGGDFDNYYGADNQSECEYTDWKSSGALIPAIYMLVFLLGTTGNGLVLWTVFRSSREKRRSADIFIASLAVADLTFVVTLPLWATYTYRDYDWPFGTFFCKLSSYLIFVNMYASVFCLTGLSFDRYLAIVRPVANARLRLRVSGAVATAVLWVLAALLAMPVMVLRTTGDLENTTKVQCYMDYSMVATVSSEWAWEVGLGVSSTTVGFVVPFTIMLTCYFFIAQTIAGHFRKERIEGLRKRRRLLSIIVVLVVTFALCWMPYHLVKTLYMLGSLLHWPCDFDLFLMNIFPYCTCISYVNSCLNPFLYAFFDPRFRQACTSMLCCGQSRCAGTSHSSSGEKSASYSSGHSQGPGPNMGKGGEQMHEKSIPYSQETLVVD

T2: rat APJ receptor (rat, UniProt Q9JHG3 1-377)
T2 sequence (looked up): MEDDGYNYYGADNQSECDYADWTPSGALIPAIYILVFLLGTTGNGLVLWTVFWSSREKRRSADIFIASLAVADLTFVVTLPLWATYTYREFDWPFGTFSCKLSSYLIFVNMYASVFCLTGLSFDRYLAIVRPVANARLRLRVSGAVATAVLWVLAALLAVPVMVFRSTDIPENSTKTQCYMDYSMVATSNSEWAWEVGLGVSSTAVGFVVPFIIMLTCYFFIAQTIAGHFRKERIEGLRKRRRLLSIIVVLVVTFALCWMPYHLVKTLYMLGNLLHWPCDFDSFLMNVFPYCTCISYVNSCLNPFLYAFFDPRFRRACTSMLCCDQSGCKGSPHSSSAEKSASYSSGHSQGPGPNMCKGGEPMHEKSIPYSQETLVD

B1: apelin polypeptide SEQ ID NO: 55 (peptide)
peptide: Ac-[dQ][hArg]P[NMeR][Cha]SHKG[Oic][Nle]P[dPhe(4-Cl)]-OH
SMILES: CCCC[C@H](NC(=O)[C@@H]1C[C@@H]2CCCC[C@@H]2N1C(=O)CNC(=O)[C@H](CCCCN)NC(=O)[C@H](Cc1c[nH]cn1)NC(=O)[C@H](CO)NC(=O)[C@H](CC1CCCCC1)NC(=O)[C@H](CCCNC(=N)N)N(C)C(=O)[C@@H]1CCCN1C(=O)[C@H](CCCCNC(=N)N)NC(=O)[C@@H](CCC(N)=O)NC(C)=O)C(=O)N1CCC[C@H]1C(=O)N[C@H](Cc1ccc(Cl)cc1)C(=O)O
B2: apelin polypeptide SEQ ID NO: 54 (peptide)
peptide: Ac-Q[dR]P[NMeR][Cha]SHKG[Oic][Nle][d1Nal]-OH
SMILES: CCCC[C@H](NC(=O)[C@@H]1C[C@@H]2CCCC[C@@H]2N1C(=O)CNC(=O)[C@H](CCCCN)NC(=O)[C@H](Cc1c[nH]cn1)NC(=O)[C@H](CO)NC(=O)[C@H](CC1CCCCC1)NC(=O)[C@H](CCCNC(=N)N)N(C)C(=O)[C@@H]1CCCN1C(=O)[C@@H](CCCNC(=N)N)NC(=O)[C@H](CCC(N)=O)NC(C)=O)C(=O)N[C@H](Cc1cccc2ccccc12)C(=O)O
B3: apelin polypeptide SEQ ID NO: 57 (peptide)
peptide: Ac-[Orn]F[hArg][hArg]Q[hArg]P[NMeR][Cha]SHKG[Oic][Nle][Phe(4-Cl)]-OH
SMILES: CCCC[C@H](NC(=O)[C@@H]1C[C@@H]2CCCC[C@@H]2N1C(=O)CNC(=O)[C@H](CCCCN)NC(=O)[C@H](Cc1c[nH]cn1)NC(=O)[C@H](CO)NC(=O)[C@H](CC1CCCCC1)NC(=O)[C@H](CCCNC(=N)N)N(C)C(=O)[C@@H]1CCCN1C(=O)[C@H](CCCCNC(=N)N)NC(=O)[C@H](CCC(N)=O)NC(=O)[C@H](CCCCNC(=N)N)NC(=O)[C@H](CCCCNC(=N)N)NC(=O)[C@H](Cc1ccccc1)NC(=O)[C@H](CCCN)NC(C)=O)C(=O)N[C@@H](Cc1ccc(Cl)cc1)C(=O)O
B4: apelin polypeptide SEQ ID NO: 52 (peptide)
peptide: Ac-[dR]QRP[hArg][NMeL]SHKG[Oic][Phe(4-I)]P[dBip]-OH
SMILES: CC(=O)N[C@H](CCCNC(=N)N)C(=O)N[C@@H](CCC(N)=O)C(=O)N[C@@H](CCCNC(=N)N)C(=O)N1CCC[C@H]1C(=O)N[C@@H](CCCCNC(=N)N)C(=O)N(C)[C@@H](CC(C)C)C(=O)N[C@@H](CO)C(=O)N[C@@H](Cc1c[nH]cn1)C(=O)N[C@@H](CCCCN)C(=O)NCC(=O)N1[C@H](C(=O)N[C@@H](Cc2ccc(I)cc2)C(=O)N2CCC[C@H]2C(=O)N[C@H](Cc2ccc(-c3ccccc3)cc2)C(=O)O)C[C@@H]2CCCC[C@@H]21

The binders below were run against T1, human APJ receptor (assay: cell-based or functional assay).

Binder | EC50 Human APJ Receptor [nM]
B1 | 31.6
B2 | 30.1
Ac-[dR]Q[hArg]P[dR][NMeL]SHKG[Oic][Phe(4-I)]P[dBip]-OH [apelin polypeptide SEQ ID NO: 50] | 1.43
B3 | 0.412
Ac-RQRP[hArg][NMeL]SHKG[Oic][Phe(4-I)]P[dBip]-OH [apelin polypeptide SEQ ID NO: 51] | 0.37
QRPRLSHKGXFPX ({Acetyl-NH}Q[hArg]Pr[NMeLeu]SHKG[Oic][pI-Phe]P[D-Bip]{COOH}) [apelin polypeptide SEQ ID NO: 53] | 5.18
B4 | 0.623

The binders below were run against T2, rat APJ receptor (assay: cell-based or functional assay).

Binder | EC50 Rat APJ Receptor [nM]
B1 | 145
B2 | 312
Ac-[dR]Q[hArg]P[dR][NMeL]SHKG[Oic][Phe(4-I)]P[dBip]-OH [apelin polypeptide SEQ ID NO: 50] | 1.68
B3 | 0.787
Ac-RQRP[hArg][NMeL]SHKG[Oic][Phe(4-I)]P[dBip]-OH [apelin polypeptide SEQ ID NO: 51] | 1.26
QRPRLSHKGXFPX ({Acetyl-NH}Q[hArg]Pr[NMeLeu]SHKG[Oic][pI-Phe]P[D-Bip]{COOH}) [apelin polypeptide SEQ ID NO: 53] | 5.98
B4 | 1.14
